Ends that are not written are not given here. * marks the point of attachment. Biotin = O=C1N[C@H]2[C@H](CS[C@H]2CCCCC(=O)*)N1; ethylene glycol linker = not defined here
T1: MEPDRKAAVS
T1 construct: C-terminal truncation; also called β-catenin aa 14-23
T1 peptide: MEPDRKAAVS

T2: RKAAVSHWQQ
T2 construct: N-terminal truncation; also called β-catenin aa 18-27
T2 peptide: RKAAVSHWQQ

T3: MEPDRKAAVSHWQQ
T3 construct: full-length peptide of both truncation series; also called β-catenin aa 14-27
T3 peptide: MEPDRKAAVSHWQQ

T4: EPDRKAAVSHWQQ
T4 construct: N-terminal truncation; also called β-catenin aa 15-27
T4 peptide: EPDRKAAVSHWQQ

T5: MEPDRKAAVSHW
T5 construct: C-terminal truncation; also called β-catenin aa 14-25
T5 peptide: MEPDRKAAVSHW

T6: MEPDRKAAVSH
T6 construct: C-terminal truncation; also called β-catenin aa 14-24
T6 peptide: MEPDRKAAVSH

T7: MEPDRKAAVSHWQ
T7 construct: C-terminal truncation; also called β-catenin aa 14-26
T7 peptide: MEPDRKAAVSHWQ

T8: AAVSHWQQ
T8 construct: N-terminal truncation; also called β-catenin aa 20-27
T8 peptide: AAVSHWQQ

T9: DRKAAVSHWQQ
T9 construct: N-terminal truncation; also called β-catenin aa 17-27
T9 peptide: DRKAAVSHWQQ

T10: KAAVSHWQQ
T10 construct: N-terminal truncation; also called β-catenin aa 19-27
T10 peptide: KAAVSHWQQ

T11: pTag1 peptide (PDRVRAVSHWSS), biotinylated (reading uncertain)
T11 construct: Immobilised on Streptavidin biosensors
T11 peptide: {Biotin-ethylene glycol linker}-PDRVRAVSHWSS

T12: BC2T K4E (human)
T12 construct: position 4 library, row E
T12 peptide: Ac-PDREAAVSHWQQ-NH2

B1: BC2 nanobody (VHH)
VHH: QVQLVESGGGLVQPGGSLTLSCTASGFTLDHYDIGWFRQAPGKEREGVSCINNSDDDTYYADSVKGRFTIFMDNAKDTVYLQMNSLKPEDTAIYYCAEARGCKRGRYEYDFWGQGTQVTVSS
notes: Alpaca VHH, 122 aa; also called BC2-Nb; BC2 nanotrap (BC2-Nb immobilized on agarose/Sepharose beads); not shown: C-terminal 6xHis-tag added by the pHEN6 vector
B2: BC2 nanobody (BC2-Nb) (VHH)
VHH: B1 VHH
notes: immobilised on agarose/sepharose beads in this assay; also called BC2 nanotrap (immobilised form); not shown: C-terminal 6xHis-tag added by pHEN6 vector

What was measured:
[1] = target: T1, MEPDRKAAVS; test: truncated peptides of β-catenin aa 14-27 on OVA-microspheres, biotinylated BC2-Nb, streptavidin-PE
Text: (§1) As negative controls, microspheres comprising Ovalbumin and the Myc-peptide ([…]) covalently coupled to OVA-microspheres were used. […] Evaluation of the PE-signals were done in a Flexmap 3D (Luminex).

[2] = target: T2, RKAAVSHWQQ; test: as above
Text: as §1

[3] = target: T3, MEPDRKAAVSHWQQ; test: as above
Text: as §1

[4] = target: T4, EPDRKAAVSHWQQ; test: as above
Text: as §1

[5] = target: T5, MEPDRKAAVSHW; test: as above
Text: as §1

[6] = target: T6, MEPDRKAAVSH; test: as above
Text: as §1

[7] = target: T7, MEPDRKAAVSHWQ; test: as above
Text: as §1

[8] = target: T8, AAVSHWQQ; test: as above
Text: as §1

[9] = target: T9, DRKAAVSHWQQ; test: as above
Text: as §1

[10] = target: T10, KAAVSHWQQ; test: as above
Text: as §1

[11] = target: T11, pTag1 peptide (PDRVRAVSHWSS), …; test: biolayer interferometry, biotinylated peptide on Streptavidin biosensor; reference original BC2T (SEQ ID NO:4)
Method: Biolayer interferometry (BLI)-based affinity measurements were used to assess two improved variations of the original BC2T sequence (a: […], pTag1 SEQ ID NO:33; b: […], pTag2 SEQ ID NO:34) in comparison with the original BC2T sequence (c: BC2T SEQ ID NO:4).
The shaking rate was 1200 rpm. As a reference, each peptide was also incubated with BLItz buffer only according to the protocol above. […] The sensor was regenerated by sequential dips into 10 mM glycine pH 2.0 and BLItz buffer (repeated three times). Raw data were analysed using the software BLItz Pro (fortéBio) and a 1:1 binding model.

[12] = target: T12, BC2T K4E; test: library pulldown, LC-MS of supernatant; ratio vs GFP-Nb control (0=captured, 1=not captured)
Outline: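 Unbound peptide left in supernatant after 1 h pulldown in PBS/0.01% CHAPS measured by reversed-phase LC-MS (8–30% eluent B gradient, 20 min).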

| Binder | binding result [1] | binding result [2] | binding result [3] | binding result [4] | binding result [5] | binding result [6] | binding result [7] | binding result [8] | binding result [9] | binding result [10] | fold slower koff than for original BC2T [11] [fold] | ratio [12] |
| --- | --- | --- | --- | --- | --- | --- | --- | --- | --- | --- | --- | --- |
| B1 | no binding (tested: 1 µg/ml BC2-Nb) | binds | binds | binds | binds | no binding (tested: 1 µg/ml BC2-Nb) | binds | no binding (tested: 1 µg/ml BC2-Nb) | binds | no binding (tested: 1 µg/ml BC2-Nb) | 7 | – |
| B2 | – | – | – | – | – | – | – | – | – | – | – | 0.5 |
